This passage reports fraction ligated results from the supplement of paper PMC6755084.

B1: minF1; the commonest letter at each place (parent)
chain: GAGACCGCAACTGAAAAGTTGTTATCAGAAATGGATGGGTTGAATTTCTGCACGTAGAAGCAAAAGGC

The series covers variants of B1. The series is described as follows: fraction ligated after 30 min (ligated reads / total reads); higher = more ligase activity. As to conditions: with F1*subA RNA substrate (template-directed ligation), 42 °C. A digest of the protocol:
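Templates from an oligo pool encoding minimized ligase ribozyme variants were amplified by PCR, transcribed with T7, and purified on gels. Gel electrophoresis separated ligated from unligated RNAs, which were then reverse transcribed using barcoded primers and sequenced on a MiSeq, keeping core bases with quality ≥30. For each variant, fraction ligated equals ligated reads divided by total reads.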
GAGACCGCAACTGAAAAGTTGTTATCAGTACTGGATGGGTTGAATTTCTGCACGTAGAAGCAAAAGGC [A29T A31C]: the fraction ligated worked out at 0.798.
With GAGACCGCAACTGAAAAGTTGTTATCAGTAGTGGATGGGTTGAATTTCTGCACGTAGAAGCAAAAGGC [A29T A31G], the fraction ligated is 0.811.
Next, GAGACCGCAACTGAAAAGTTGTTATCAGTATTGGATGGGTTGAATTTCTGCACGTAGAAGCAAAAGGC [A29T A31T]: 0.828.
As for GAGACCGCAACTGAAAAGTTGTTATCAGTAATGGATGGGTTGGATTTCTGCACGTAGAAGCAAAAGGC [A29T A43G], the fraction ligated was determined as 0.0507.
In the case of GAGACCGCAACTGAAAAGTTGTTATCAGTAATGGATGGGTTGTATTTCTGCACGTAGAAGCAAAAGGC [A29T A43T], the fraction ligated was determined as 0.0859.
As to GAGACCGCAACTGAAAAGTTGTTATCAGTAATGGATGGGTTGCATTTCTGCACGTAGAAGCAAAAGGC [A29T A43C], the fraction ligated was found to be 0.065.
As to GAGACCGCAACTGAAAAGTTGTTATCAGTAATGGATGGGTTGATTTTCTGCACGTAGAAGCAAAAGGC [A29T A44T], the fraction ligated turned out to be 0.741.
For the variant GAGACCGCAACTGAAAAGTTGTTATCAGTAATGGATGGGTTGAGTTTCTGCACGTAGAAGCAAAAGGC [A29T A44G], the fraction ligated came to 0.734.
With GAGACCGCAACTGAAAAGTTGTTATCAGTAATGGATGGGTTGACTTTCTGCACGTAGAAGCAAAAGGC [A29T A44C], the fraction ligated was determined as 0.59.
To GAGACCGCAACTGAAAAGTTGTTATCAGGATTGGATGGGTTGAATTTCTGCACGTAGAAGCAAAAGGC [A29G A31T] belongs 0.812; to GAGACCGCAACTGAAAAGTTGTTATCAGGACTGGATGGGTTGAATTTCTGCACGTAGAAGCAAAAGGC [A29G A31C], 0.803.
Consider GAGACCGCAACTGAAAAGTTGTTATCAGGAGTGGATGGGTTGAATTTCTGCACGTAGAAGCAAAAGGC [A29G A31G], for which the fraction ligated came out at 0.795.
To GAGACCGCAACTGAAAAGTTGTTATCAGACATGGATGGGTTGGATTTCTGCACGTAGAAGCAAAAGGC [A30C A43G] belongs 0.0454; to GAGACCGCAACTGAAAAGTTGTTATCAGACATGGATGGGTTGCATTTCTGCACGTAGAAGCAAAAGGC [A30C A43C], 0.0543; to GAGACCGCAACTGAAAAGTTGTTATCAGACATGGATGGGTTGTATTTCTGCACGTAGAAGCAAAAGGC [A30C A43T], 0.0731.
GAGACCGCAACTGAAAAGTTGTTATCAGTAATGGAAGGGTTGAATTTCTGCACGTAGAAGCAAAAGGC [A29T T36A]: the fraction ligated is 0.0343.
For the variant GAGACCGCAACTGAAAAGTTGTTATCAGTAATGGACGGGTTGAATTTCTGCACGTAGAAGCAAAAGGC [A29T T36C], the fraction ligated stood at 0.0219.
Regarding GAGACCGCAACTGAAAAGTTGTTATCAGTAATGGAGGGGTTGAATTTCTGCACGTAGAAGCAAAAGGC [A29T T36G], the fraction ligated amounted to 0.0504.
As to GAGACCGCAACTGAAAAGTTGTTATCAGCAATGGAGGGGTTGAATTTCTGCACGTAGAAGCAAAAGGC [A29C T36G], the fraction ligated was 0.0261.
GAGACCGCAACTGAAAAGTTGTTATCAGGAATCGATGGGTTGAATTTCTGCACGTAGAAGCAAAAGGC [A29G G33C]: the fraction ligated stood at 0.709.
Turning to GAGACCGCAACTGAAAAGTTGTTATCAGGAATTGATGGGTTGAATTTCTGCACGTAGAAGCAAAAGGC [A29G G33T], the fraction ligated was 0.516.
Take GAGACCGCAACTGAAAAGTTGTTATCAGGAATAGATGGGTTGAATTTCTGCACGTAGAAGCAAAAGGC [A29G G33A]: the fraction ligated was 0.8.
Regarding GAGACCGCAACTGAAAAGTTGTTATCAGGAATGGATGGGTTGATTTTCTGCACGTAGAAGCAAAAGGC [A29G A44T], the fraction ligated turned out to be 0.76.
Take GAGACCGCAACTGAAAAGTTGTTATCAGGAATGGATGGGTTGAGTTTCTGCACGTAGAAGCAAAAGGC [A29G A44G]: the fraction ligated was 0.753.
For GAGACCGCAACTGAAAAGTTGTTATCAGGAATGGATGGGTTGACTTTCTGCACGTAGAAGCAAAAGGC [A29G A44C], the fraction ligated was determined as 0.649.
Turning to GAGACCGCAACTGAAAAGTTGTTATCAGGAATGGATGGGTTGGATTTCTGCACGTAGAAGCAAAAGGC [A29G A43G], the fraction ligated was 0.0803.
Consider GAGACCGCAACTGAAAAGTTGTTATCAGGAATGGATGGGTTGTATTTCTGCACGTAGAAGCAAAAGGC [A29G A43T], for which the fraction ligated came to 0.0936.
GAGACCGCAACTGAAAAGTTGTTATCAGGAATGGATGGGTTGCATTTCTGCACGTAGAAGCAAAAGGC [A29G A43C]: the fraction ligated amounted to 0.0987.
On to GAGACCGCAACTGAAAAGTTGTTATCAGGGATGGATGGGTTGAATTTCTGCACGTAGAAGCAAAAGGC [A29G A30G], for which the fraction ligated is 0.811.
To GAGACCGCAACTGAAAAGTTGTTATCAGGCATGGATGGGTTGAATTTCTGCACGTAGAAGCAAAAGGC [A29G A30C] belongs 0.84.
To GAGACCGCAACTGAAAAGTTGTTATCAGGTATGGATGGGTTGAATTTCTGCACGTAGAAGCAAAAGGC [A29G A30T] belongs 0.817.
In the case of GAGACCGCAACTGAAAAGTTGTTATCAGTAATGGATGGGTTTAATTTCTGCACGTAGAAGCAAAAGGC [A29T G42T], the fraction ligated is 0.0835.
Consider GAGACCGCAACTGAAAAGTTGTTATCAGTAATGGATGGGTTAAATTTCTGCACGTAGAAGCAAAAGGC [A29T G42A], for which the fraction ligated amounted to 0.269.
GAGACCGCAACTGAAAAGTTGTTATCAGTAATGGATGGGTTCAATTTCTGCACGTAGAAGCAAAAGGC [A29T G42C]: the fraction ligated worked out at 0.00612.
With GAGACCGCAACTGAAAAGTTGTTATCAGACCTGGATGGGTTGAATTTCTGCACGTAGAAGCAAAAGGC [A30C A31C], the fraction ligated was found to be 0.714.
Turning to GAGACCGCAACTGAAAAGTTGTTATCAGACGTGGATGGGTTGAATTTCTGCACGTAGAAGCAAAAGGC [A30C A31G], the fraction ligated amounted to 0.806.
With GAGACCGCAACTGAAAAGTTGTTATCAGACTTGGATGGGTTGAATTTCTGCACGTAGAAGCAAAAGGC [A30C A31T], the fraction ligated is 0.771.
As for GAGACCGCAACTGAAAAGTTGTTATCAGTAATGCATGGGTTGAATTTCTGCACGTAGAAGCAAAAGGC [A29T G34C], the fraction ligated was determined as 0.00521.
For the variant GAGACCGCAACTGAAAAGTTGTTATCAGTAATGTATGGGTTGAATTTCTGCACGTAGAAGCAAAAGGC [A29T G34T], the fraction ligated is 0.00673.
As to GAGACCGCAACTGAAAAGTTGTTATCAGTAATGAATGGGTTGAATTTCTGCACGTAGAAGCAAAAGGC [A29T G34A], the fraction ligated was 0.0752.
